{"source": "paper PMC7876108", "about": "“Cryo-EM structures of engineered active bc1-cbb3 type CIII2CIV super-complexes and electronic communication between the complexes” (Nature Communications, 2021)", "binders": {"B1": {"name": "cytochrome b, subunit of CIII2 (natural protein, Rhodobacter capsulatus)", "chain": "MSGIPHDHYEPKTGIEKWLHDRLPIVGLVYDTIMIPTPKNLNWWWIWGIVLAFTLVLQIVTGIVLAMHYTPHVDLAFASVEHIMRDVNGGWAMRYIHANGASLFFLAVYIHIFRGLYYGSYKAPREITWIVGMVIYLLMMGTAFMGYVLPWGQMSFWGATVITGLFGAIPGIGPSIQAWLLGGPAVDNATLNRFFSLHYLLPFVIAALVAIHIWAFHTTGNNNPTGVEVRRTSKADAEKDTLPFWPYFVIKDLFALALVLLGFFAVVAYMPNYLGHPDNYVQANPLSTPAHIVPEWYFLPFYAILRAFAADVWVVILVDGLTFGIVDAKFFGVIAMFGAIAVMALAPWLDTSKVRSGAYRPKFRMWFWFLVLDFVVLTWVGAMPTEYPYDWISLIASTYWFAYFLVILPLLGATEKPEPIPASIEEDFNSHYGNPAE", "notes": "cytochrome b (petB), Rhodobacter capsulatus; also called cyt b; PetB"}}, "key": {"[1]": {"target": "B1", "test": "cryo-EM structure; native CIII2 particles in the bipartite SC + cy samples; maps CIII2 (3.3 A), CIII2 c-c (3.8 A), b-c (4.2 A), b-b (3.5 A)", "conditions": "both partners purified"}, "[2]": {"target": "T1, cytochrome c1, subunit of bc1-type CIII2 (Rhodobacter capsulatus, UniProt D5ANZ4 22-279)", "T1 construct": "cytochrome c1 (petC), Rhodobacter capsulatus; Stood within the CIII2 complex (FeS protein, cyt b, cyt c1; a dimer) in the cross-linking and in the cryo-EM maps of native CIII2; also called cyt c1; PetC; source: native CIII2 particles in the bipartite SC + cy sample", "T1 sequence (looked up)": "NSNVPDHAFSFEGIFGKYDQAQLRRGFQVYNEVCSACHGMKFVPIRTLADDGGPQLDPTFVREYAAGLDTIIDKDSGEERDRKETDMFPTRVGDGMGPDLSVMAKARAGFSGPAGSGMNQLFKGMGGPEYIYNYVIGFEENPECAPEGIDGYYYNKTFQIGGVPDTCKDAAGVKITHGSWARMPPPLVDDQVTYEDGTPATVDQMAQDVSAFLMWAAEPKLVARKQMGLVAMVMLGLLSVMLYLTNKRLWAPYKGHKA", "test": "cryo-EM structure; native CIII2 particles in the bipartite SC + cy samples; maps CIII2 (3.3 A), CIII2 c-c (3.8 A), b-c (4.2 A), b-b (3.5 A)", "conditions": "both partners purified"}, "[3]": {"target": "T2, cytochrome cy, full length (membrane-anchored) (Rhodobacter capsulatus, UniProt Q05389 1-199)", "T2 construct": "cytochrome cy (cycY), Rhodobacter capsulatus: 30-residue TMH, 69-residue linker, 100-residue cyt c domain; Only its TMH is resolved in map SC-2A; also called cyt cy; intact cyt cy; source: purified", "T2 sequence (looked up)": "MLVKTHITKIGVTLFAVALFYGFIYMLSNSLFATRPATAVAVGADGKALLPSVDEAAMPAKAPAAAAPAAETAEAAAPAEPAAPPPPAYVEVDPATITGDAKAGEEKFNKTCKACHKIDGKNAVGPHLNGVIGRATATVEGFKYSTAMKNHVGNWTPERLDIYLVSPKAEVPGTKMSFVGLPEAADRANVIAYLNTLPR", "test": "cross-linking; XL-MS: cyt cy with CIII2CIV, DMTMM", "conditions": "both partners purified"}, "[4]": {"target": "B1", "test": "cryo-EM structure; purified bipartite SC mixed with 5-fold molar excess of purified cyt cy; map SC-2A, 5.2 A; models fitted as rigid bodies", "conditions": "both partners purified"}, "[5]": {"target": "the molecule itself", "test": "cryo-EM structure; purified bipartite SC mixed with 5-fold molar excess of purified cyt cy; map SC-2A, 5.2 A; models fitted as rigid bodies"}, "[6]": {"target": "T3, CcoP, subunit of cbb3-type CIV (Rhodobacter capsulatus, UniProt D5ARP7 1-297)", "T3 construct": "CcoP subunit of the cbb3-type CIV, Rhodobacter capsulatus; Stood within purified CIV in the cross-linking", "T3 sequence (looked up)": "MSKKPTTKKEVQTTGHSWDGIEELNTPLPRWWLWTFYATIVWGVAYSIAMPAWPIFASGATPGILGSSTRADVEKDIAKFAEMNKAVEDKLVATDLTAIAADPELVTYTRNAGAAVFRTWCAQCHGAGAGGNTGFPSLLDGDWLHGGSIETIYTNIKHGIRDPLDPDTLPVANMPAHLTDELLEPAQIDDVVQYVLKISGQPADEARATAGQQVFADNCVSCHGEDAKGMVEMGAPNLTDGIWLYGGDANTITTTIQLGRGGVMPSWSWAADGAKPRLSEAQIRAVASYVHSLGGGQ", "test": "cross-linking; XL-MS: 300 ug purified cbb3-type CIV with 2-fold molar excess of cyt c2, 20 mM DMTMM, 1 h, room temperature, low salt (20 mM Na-phosphate pH 7.4, 1 mM NaCl, 0.01% DDM)", "conditions": "both partners purified"}, "[7]": {"target": "T1, cytochrome c1, subunit of bc1-type CIII2", "test": "cross-linking; XL-MS: 300 ug purified bc1-type CIII2 with 2-fold molar excess of cyt c2, 20 mM DMTMM, 1 h, room temperature, low salt (20 mM Na-phosphate pH 7.4, 1 mM NaCl, 0.01% DDM)", "conditions": "both partners purified"}}, "data": [{"binder": "Rieske FeS protein, subunit of CIII2 (natural protein, Rhodobacter capsulatus, Rieske FeS protein (petA), Rhodobacter capsulatus; TMH residues 11-49, external domain (ED) residues 50-191 in the model; also called PetA; FeS-ED (its external domain); source: R. capsulatus pYO76/YO12, subunit of the purified bipartite SC and of the native CIII2 particles in that sample) MSHAEDNAGTRRDFLYHATAATGVVVTGAAVWPLINQMNASADVKAMASIFVDVSAVEVGTQLTVKWRGKPVFIRRRDEKDIELARSVPLGALRDTSAENANKPGAEATDENRTLPAFDGTNTGEWLVMLGVCTHLGCVPMGDKSGDFGGWFCPCHGSHYDSAGRIRKGPAPRNLDIPVAAFVDETTIKLG", "values": [{"measurement": "binding result", "setting": "[1]", "value": "binds"}, {"measurement": "binding result", "setting": "[2]", "value": "binds"}, {"measurement": "binding result", "setting": "[3]", "value": "binds"}]}, {"binder": "cyt c1-CcoP fusion subunit of the bipartite SC (His8) (other, Rhodobacter capsulatus, UniProt D5ANZ4 22-279, looked up, cytochrome c1 (petC), Rhodobacter capsulatus; stop codon eliminated, no linker to CcoP; CcoP subunit of the cbb3-type CIV, Rhodobacter capsulatus; start codon eliminated; About 65 kDa; Stood within the bipartite SC; also called petC::ccoP-His8; source: R. capsulatus pYO76/YO12, subunit of the purified bipartite SC; not shown: His8, C-terminal, kept) NSNVPDHAFSFEGIFGKYDQAQLRRGFQVYNEVCSACHGMKFVPIRTLADDGGPQLDPTFVREYAAGLDTIIDKDSGEERDRKETDMFPTRVGDGMGPDLSVMAKARAGFSGPAGSGMNQLFKGMGGPEYIYNYVIGFEENPECAPEGIDGYYYNKTFQIGGVPDTCKDAAGVKITHGSWARMPPPLVDDQVTYEDGTPATVDQMAQDVSAFLMWAAEPKLVARKQMGLVAMVMLGLLSVMLYLTNKRLWAPYKGHKASKKPTTKKEVQTTGHSWDGIEELNTPLPRWWLWTFYATIVWGVAYSIAMPAWPIFASGATPGILGSSTRADVEKDIAKFAEMNKAVEDKLVATDLTAIAADPELVTYTRNAGAAVFRTWCAQCHGAGAGGNTGFPSLLDGDWLHGGSIETIYTNIKHGIRDPLDPDTLPVANMPAHLTDELLEPAQIDDVVQYVLKISGQPADEARATAGQQVFADNCVSCHGEDAKGMVEMGAPNLTDGIWLYGGDANTITTTIQLGRGGVMPSWSWAADGAKPRLSEAQIRAVASYVHSLGGGQ", "values": [{"measurement": "binding result", "setting": "[3]", "value": "binds"}, {"measurement": "binding result", "setting": "[4]", "value": "binds"}]}, {"binder": "B1", "values": [{"measurement": "binding result", "setting": "[5]", "value": "binds"}]}, {"binder": "cytochrome c2 (natural protein, Rhodobacter capsulatus, UniProt P00094 22-137, looked up, soluble cytochrome c2, Rhodobacter capsulatus; also called cyt c2; source: purified R. capsulatus cyt c2) GDAAKGEKEFNKCKTCHSIIAPDGTEIVKGAKTGPNLYGVVGRTAGTYPEFKYKDSIVALGASGFAWTEEDIATYVKDPGAFLKEKLDDKKAKTGMAFKLAKGGEDVAAYLASVVK", "values": [{"measurement": "binding result", "setting": "[6]", "value": "binds"}, {"measurement": "binding result", "setting": "[7]", "value": "binds"}]}]}
